The source of these data is patent publication US20150125454A1 (Daiichi Sankyo, published 2015).

In this experiment the target is human FGFR2 IIIc variant protein (isoform 1: NP-000132) (human, UniProt P21802 22-821). The experiment can be described thus: flow cytometry (MFI) on transfected HEK293T cells, hybridoma supernatant; non-binding implied by 'selectively', values only in FIG. 1. The procedure:
Each human FGFR expression vector constructed in Examples 1)-3-1 and 2)-1-1 was transfected to HEK293T cells by the method shown in Example 1)-5-1. The cell suspension was centrifuged to remove the supernatant. Then, these various human FGFR expression vector-transfected HEK293T cells and the pcDNA-DEST40-transfected HEK293T cells were separately suspended by the addition of the hybridoma culture supernatant containing the FR2-10, FR2-13, or FR2-14 antibody and left standing at 4° C. for 1 hour. The cells were washed twice with PBS containing 5% FBS, then suspended by the addition of Anti-Rat IgG FITC conjugate (manufactured by Sigma-Aldrich Corp.) diluted 320-fold with PBS containing 5% FBS, and left standing at 4° C. for 1 hour. The cells were washed 3 times with PBS containing 5% FBS and then resuspended in PBS containing 5% FBS and 2 μg/ml 7-aminoactinomycin D (manufactured by Molecular Probes, Inc.), followed by detection using a flow cytometer (FC500; manufactured by Beckman Coulter Inc.). The data was analyzed using Flowjo (manufactured by Tree Star Inc.). After removal of 7-aminoactinomycin D-positive dead cells by gating, the FITC fluorescence intensity of live cells was plotted to a histogram to calculate average fluorescence intensity (MFI).
(A flow cytometer gives signals particle by particle.)

Sequence of human FGFR2 IIIc variant protein (isoform 1: NP-000132) (P21802 22-821 limits assumed, change not shown): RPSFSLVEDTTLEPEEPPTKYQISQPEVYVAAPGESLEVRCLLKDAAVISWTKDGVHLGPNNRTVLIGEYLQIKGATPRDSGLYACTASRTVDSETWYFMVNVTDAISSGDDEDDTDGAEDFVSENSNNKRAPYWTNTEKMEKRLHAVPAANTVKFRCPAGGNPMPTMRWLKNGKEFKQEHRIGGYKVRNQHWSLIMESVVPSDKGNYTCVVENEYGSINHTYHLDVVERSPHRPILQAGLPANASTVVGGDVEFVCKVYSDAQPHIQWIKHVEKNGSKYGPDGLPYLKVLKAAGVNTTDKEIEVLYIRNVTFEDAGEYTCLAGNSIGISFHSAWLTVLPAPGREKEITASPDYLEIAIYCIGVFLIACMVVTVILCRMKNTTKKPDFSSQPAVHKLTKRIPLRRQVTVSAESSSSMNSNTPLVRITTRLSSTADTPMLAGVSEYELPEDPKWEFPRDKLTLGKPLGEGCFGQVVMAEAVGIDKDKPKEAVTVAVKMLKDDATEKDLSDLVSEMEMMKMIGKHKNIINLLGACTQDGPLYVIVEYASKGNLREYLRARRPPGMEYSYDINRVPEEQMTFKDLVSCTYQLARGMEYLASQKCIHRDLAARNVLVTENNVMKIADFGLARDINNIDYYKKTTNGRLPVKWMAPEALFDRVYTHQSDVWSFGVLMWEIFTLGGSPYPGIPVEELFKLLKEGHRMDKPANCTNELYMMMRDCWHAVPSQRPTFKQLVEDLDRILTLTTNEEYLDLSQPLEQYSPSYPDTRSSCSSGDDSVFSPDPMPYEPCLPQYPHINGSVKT

B1: rat anti-FGFR2 antibody FR2-10 (antibody, IgG2a, V domains shown)
VH: EVQLVESGGGLVQPGRSLKLSCVASGFRFNDFWMTWIRQAPGKGLEWVASITYTGDNTYYAGSVKGRITISRDNAKSTLYLQMNSLRSEDTATYYCTRDDYGGYSPYYMDAWGQGTSVTVSS
VL: DIQMTQSPSSLSAFLGDRVTITCRASQDIGNYLRWFQQKPGKSPRLMIYGATNLANGVPSRFSGSRSGSDYSLTINNLESEDMAIYYCLKHNEYPFTFGSGTKLEIKR
notes: Used as hybridoma culture supernatant in flow cytometry and as antibody purified from ascites elsewhere; also called rat FR2-10 antibody
Take B1: the binding result is given as “no binding”.
